These results are taken from patent publication US20240309087A1 (SHANGHAI JUNSHI BIOSCIENCES, published 2024).

Experiment [1] addresses T1, human CD112R on Jurkat CD112R effector cells (human, UniProt Q6DKI7 1-326).
T1 sequence (looked up): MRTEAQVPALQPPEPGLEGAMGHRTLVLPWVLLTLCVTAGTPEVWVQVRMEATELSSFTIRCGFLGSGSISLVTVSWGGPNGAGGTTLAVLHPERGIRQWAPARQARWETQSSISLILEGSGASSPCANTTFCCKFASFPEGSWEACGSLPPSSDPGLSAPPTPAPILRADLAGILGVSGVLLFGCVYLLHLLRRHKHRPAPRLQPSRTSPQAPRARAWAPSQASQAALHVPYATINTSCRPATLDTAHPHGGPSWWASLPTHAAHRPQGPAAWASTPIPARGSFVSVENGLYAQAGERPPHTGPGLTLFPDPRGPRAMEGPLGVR
Put plainly: cell-based or functional assay.

Experiment [2] deals with T2, human CD112R on CHO-CD112R cells (human, UniProt Q6DKI7 41-326).
T2 construct: whole, on cells; also called hCD112R; PVRIG
T2 sequence (looked up): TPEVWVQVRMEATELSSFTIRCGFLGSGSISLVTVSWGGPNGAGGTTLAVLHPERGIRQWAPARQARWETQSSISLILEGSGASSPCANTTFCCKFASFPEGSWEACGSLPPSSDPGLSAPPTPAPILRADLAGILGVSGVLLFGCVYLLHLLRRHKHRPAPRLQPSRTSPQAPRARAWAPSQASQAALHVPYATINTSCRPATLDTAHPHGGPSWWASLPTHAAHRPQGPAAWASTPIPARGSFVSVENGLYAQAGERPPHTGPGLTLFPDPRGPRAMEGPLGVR
Briefly: FACS on CHO-CD112R cells. As for the experimental part:
(§1) CHO-CD112R cells (constructed in-house by Junshi, the amino acid sequence of CD112R in the construction of stable cell lines overexpressing CD112R comprises amino acids at positions Met1-Arg326 under NCBI accession No. Q6DKI7) overexpressing human CD112R were incubated with each of the chimeric anti-CD112R antibodies at different concentrations (initial concentration: 50 μg/mL, 5-fold dilution, 12 concentration gradients in total) at 4° C. for 30 min, and then washed and incubated with a fluorescence-labeled secondary antibody at 4° C. for 30 min in the dark. Finally, the cells were collected by using a flow cytometer (BD Canto II), and the fluorescent antibodies bound to the cell surface were detected. Raw data were analyzed by using FlowJo to obtain MFI values, the antibody dose-dependent binding curves were fitted by using GraphPad (FIG. 3, a and b) and EC₅₀ was calculated (Table 3). The positive control and the negative control were Ref (anti-CD112R antibody, University of Colorado, obtained by expression and purification according to the sequences in US20170240613) and anti-KLH hu-IgG4 antibody, respectively.

The target in experiment [3] is T3, recombinant cynomolgus monkey CD112R antigen (cynomolgus monkey, UniProt A0A2K5WVV8 1-322).
T3 construct: bought
T3 sequence: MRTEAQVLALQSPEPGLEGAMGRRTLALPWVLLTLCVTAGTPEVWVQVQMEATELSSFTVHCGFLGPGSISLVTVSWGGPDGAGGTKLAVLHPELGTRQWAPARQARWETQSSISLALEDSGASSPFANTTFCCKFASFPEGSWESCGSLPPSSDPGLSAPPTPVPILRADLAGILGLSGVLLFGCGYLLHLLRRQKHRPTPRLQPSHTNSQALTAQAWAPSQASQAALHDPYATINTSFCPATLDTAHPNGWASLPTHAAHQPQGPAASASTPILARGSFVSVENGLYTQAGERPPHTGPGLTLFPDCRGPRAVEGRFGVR
Briefly: ELISA, coated cynomolgus monkey CD112R. On the procedure:
(§2) A plate was coated with a recombinant cynomolgus monkey CD112R antigen (Acrobiosystems, Cat No. PVG-C5259) at a fixed concentration, and the chimeric anti-CD112R antibodies diluted in a gradient (initial concentration: 1 μg/mL, 2.5-fold gradient dilution, 12 concentration gradients in total) were added to bind to the antigen. Horseradish peroxidase (HRP)-conjugated mouse anti-human IgG4 Fc (Southern Biotech, 9200-05) was subjected to a 5000-fold dilution and used as a detection antibody for detection. The color development was performed with 0.1 mg/mL TMB, and finally stopped with 2 M hydrochloric acid. The plate was read at 420 nm/620 nm. EC₅₀ was obtained by fitting with a four-parameter logistic regression (4PL) model.

In experiment [4] the target is T2, human CD112R on CHO-CD112R cells. Put plainly: FACS on CHO-CD112R cells; EC50 Ref/EC50 antibody. On the procedure: as §1
Experiment [5] has as its target T4, hCD112R mFC recombinant protein (human; murine, UniProt Q6DKI7 41-160).
T4 construct: range 41-160; expressed in 293E cells; also called hCD112R ECD mFC; hCD112R-ECD-mFC; not shown: murine IgG2a Fc domain (MX2-mFc vector)
T4 sequence (looked up): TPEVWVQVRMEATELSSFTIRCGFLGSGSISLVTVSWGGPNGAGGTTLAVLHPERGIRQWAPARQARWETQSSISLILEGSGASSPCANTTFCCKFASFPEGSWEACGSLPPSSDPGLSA
Put plainly: FACS competition, hCD112R mFc on CHO CD112 cells. As for the experimental part: (§3) Cells CHO CD112 overexpressing human CD112 were co-incubated with a hCD112R mFc protein solution (5 μg/mL) prepared in a staining buffer (PBS+1% FBS), and the chimeric anti-CD112R antibodies or the control antibodies at different concentrations (initial concentration: 100 μg/mL, 3-fold dilution, 10 concentration gradients) at 4° C. for 30 min. Unbound antibodies were then washed with a staining buffer and the cells were incubated with 1% (v/v) goat anti-mouse IgG Fc fluorescent secondary antibodies (Jackson ImmunoResearch) prepared in a staining buffer at 4° C. for 30 min in the dark. Finally, the cells were collected by using a flow cytometer (BD Canto II), and the fluorescent antibodies bound to the cell surface were detected. Raw data were analyzed by using FlowJo to obtain MFI values, and a four-parameter curve fitting was performed by using GraphPad Prism software to obtain IC₅₀ values. The positive control and the negative control were Ref (anti-CD112R antibody, University of Colorado, obtained by expression and purification according to the sequences in US20170240613) and the anti-KLH hu-IgG4 antibody, respectively.
As shown in FIG. 5 (a and b) and Table 8, the following 13 chimeric antibodies were all capable of effectively blocking the binding of the CD112R protein to CHO-CD112 cells.

Experiment [6] has as its target T3, recombinant cynomolgus monkey CD112R …. Put plainly: ELISA, coated cynomolgus monkey CD112R; EC50 Ref/EC50 antibody. On the procedure:
as §2
A general note: ELISA stands for enzyme-linked immunosorbent assay.

Experiment [7] deals with T4, hCD112R mFC recombinant protein. Put plainly: FACS competition, hCD112R mFc on CHO CD112 cells; ratio Ref/antibody. As for the experimental part: as §3
The target is the same in experiment [8]. Briefly: FACS blocking: hCD112R mFc (5 µg/mL) binding to human CD112 on CHO CD112 cells, MFI-APC; unit from the axis (µg/mL), Table 8 says ng/ml. As for the experimental part: as §3

B1: Chi-62 (antibody, V domains shown)
VH: DVKLVESGGGLVKLGGSLKLSCAASGFTFSSYHMSWVRQTPEKRLELVAAISRDGDSTYYPDTVKGRFTISRDDAENTLYLQMSSLKSEDTALYYCSRHEDYFGFAMDSWGQGTSVTVSS
VL: SIVMTQTPKFLLVSAGDRVTITCKASQSVSNDVAWYQQKPGQSPKLLMYYVSNRFTGVPDRFTGSGYGTDFTFTINTVQAEDLAVYFCQQAYRSPWTFGGGTKLEIK
notes: chimeric
In the case of B1, the “EC50, CD112R/CD112 reporter” value in experiment [1] amounted to 0.0129 µg/mL. Also, in experiment [1], the “Relative activity (%), EC50 Ref/EC50 antibody” value turned out to be 2350%. Further, the EC50 is 0.214 µg/mL in experiment [2] and 0.00371 µg/mL in experiment [3]. Further, the “Relative activity (%)” value was 2000% in experiment [4], 113% in experiment [6] and 110% in experiment [7]. The half-maximal inhibitory concentration (IC50) in experiment [5] and in experiment [8] was 0.964 µg/mL in each case.

B2: Chi-71 (antibody, V domains shown)
VH: DVQLVESGGGLVKLGGSLKLSCVASGFTFSSYHMSWIRQTPEKRLELVAAINSNDINTYYLDTVKGRFTISRDIAKNTLHLQMSSLKSEDTALYYCARHEDYYGFAMDYWGQGTSVTVSS
VL: SIVMTQTPKFLLVSAGDRVTITCKASQSVTNDVAWYQQKPGQSPKLLMYYVSNHYTGVPDRFIGSGYGTDFTFTISTVQAEDLAVYFCQQAYRSPWTFGGGTKLEIK
notes: chimeric
Consider B2, for which the “EC50, CD112R/CD112 reporter” value in experiment [1] was found to be 0.0194 µg/mL. Besides, the “Relative activity (%), EC50 Ref/EC50 antibody” value in experiment [1] was determined as 1470%. Further, the EC50 in experiment [2] amounted to 0.205 µg/mL; in experiment [3], 0.00442 µg/mL. The “Relative activity (%)” value in experiment [4] is 2090%; in experiment [6], 94.8%; in experiment [7], 144%. In addition, the IC50 in experiment [5] and in experiment [8] was 0.733 µg/mL each time.

B3: Chi-70 (antibody, V domains shown)
VH: DVQLVESGGGLVKLGGSLKLSCVASGFTFSSYHMSWIRQTPEKRLELVAAINSNDINTYYLDTVKGRFTISRDIAKNTLHLQMSSLKSEDTALYYCARHEDYYGFAMDYWGQGTSVTVSS
VL: SIVMTQTPKFLLVSAGDRVTITCKASQSVSNDVAWYQQKPGQSPKLLMYYVSNRFTGVPDRFTGSGYGTDFTFTINTVQAEDLAVYFCQQAYRSPWTFGGGTKLEIK
notes: chimeric
For B3, in experiment [1], the “EC50, CD112R/CD112 reporter” value came out at 0.0139 µg/mL. In addition, in experiment [1], the “Relative activity (%), EC50 Ref/EC50 antibody” value is 1870%. In addition, the EC50 in experiment [2] is 0.26 µg/mL; in experiment [3], 0.00383 µg/mL. Moreover, the “Relative activity (%)” value stood at 1640% in experiment [4], 109% in experiment [6] and 150% in experiment [7]. For the same molecule, the IC50 in experiment [5] and in experiment [8] was 0.708 µg/mL each time.

B4: Chi-55 (antibody, V domains shown)
VH: DVKLVESGGGLVKLGGSLKLSCAASGFTFSSYHMSWIRQTPEKRLELVAAINSNGINTYYLDTVKGRFTISRDNAKNTLYLQMSSLKSEDTALYYCARHEDYYGFAMDYWGQGTSVTVSS
VL: SIVMTQTPKFLLVSAGDRVTITCKASQSVTNDVAWYQQKPGQSPKLLMYYVSNHYTGVPDRFIGSGYGTDFTFTISTVQAEDLAVYFCQQAYRSPWTFGGGTKLEIK
notes: chimeric
As for B4, the “EC50, CD112R/CD112 reporter” value in experiment [1] worked out at 0.0131 µg/mL. The “Relative activity (%), EC50 Ref/EC50 antibody” value in experiment [1] was determined as 2310%. In addition, the results for the EC50 in experiment [2] and in experiment [3] were 0.14 µg/mL and 0.00419 µg/mL, respectively. For the same molecule, the “Relative activity (%)” value in experiment [4] was 3050%; in experiment [6], 100%; in experiment [7] it was 104%. Also, the IC50 in experiment [5] and in experiment [8] was 1.02 µg/mL each time.

B5: Chi-53 (antibody, V domains shown)
VH: DVKLVESGGGLVKLGGSLKLSCAASGFTFSSYHMSWIRQTPEKRLELVAAINSNGINTYYLDTVKGRFTISRDNAKNTLYLQMSSLKSEDTALYYCARHEDYYGFAMDYWGQGTSVTVSS
VL: SIVMTQTPKFLLVSAGDRVTITCKASQSVSNDVAWYQEKPGQSPKLLMYYVSHRFTGVPDRFTGSGYGTDFTFTINTVQAEDLAVYFCHQAYRSPWTFGGGTKLEIK
notes: chimeric
As for B5, the “EC50, CD112R/CD112 reporter” value in experiment [1] is 0.0129 µg/mL. For the same molecule, in experiment [1], the “Relative activity (%), EC50 Ref/EC50 antibody” value was determined as 2430%. Moreover, the EC50 was determined as 0.627 µg/mL in experiment [2] and 0.0033 µg/mL in experiment [3]. Moreover, the entries for the “Relative activity (%)” value in experiment [4], in experiment [6] and in experiment [7] were 268%, 106% and 108%, respectively. For the same molecule, the IC50 in experiment [5] and in experiment [8] was 0.979 µg/mL each time.

B6: Chi-69 (antibody, V domains shown)
VH: DVQLVESGGGLVKLGGSLKLSCVASGFTFSSYHMSWIRQTPEKRLELVAAINSNDINTYYLDTVKGRFTISRDIAKNTLHLQMSSLKSEDTALYYCARHEDYYGFAMDYWGQGTSVTVSS
VL: SIVMTQTPKFLLVSAGDRVTITCKASQSVSNDVAWYQEKPGQSPKLLMYYVSHRFTGVPDRFTGSGYGTDFTFTINTVQAEDLAVYFCHQAYRSPWTFGGGTKLEIK
notes: chimeric
Consider B6, for which the “EC50, CD112R/CD112 reporter” value in experiment [1] was determined as 0.0187 µg/mL. The “Relative activity (%), EC50 Ref/EC50 antibody” value in experiment [1] turned out to be 1390%. Moreover, the EC50 in experiment [2] turned out to be 0.262 µg/mL; in experiment [3], 0.00474 µg/mL. Moreover, the “Relative activity (%)” value in experiment [4] worked out at 1630%; in experiment [6] it was 88.4%; in experiment [7], 110%. Besides, the IC50 in experiment [5] and in experiment [8] was 0.959 µg/mL each time.

One may read the EC50 as the concentration that produces a half-maximal response. In general, IC50 refers to the concentration needed to halve the response being measured.
